In the supplement of paper PMC12042874:
± gives the uncertainty stated by the source.

experiment: amyloid nucleation score (Sup35N fusion, yeast selection) (log enrichment); library NNK3; higher = more nucleation; inactive = no reads after selection
Summary of the method: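 Three technical output replicates were used for random libraries. Psi-negative yeast expressing peptides of 20 random codons fused to Sup35N were induced with 100 μM copper sulfate for 24 hours and grown 7 days at 30°C on medium lacking adenine and uracil, and input and output plasmid inserts were Illumina-sequenced, excluding sequences with under 100 input reads. The nucleation score is the DiMSum log enrichment of output over input reads, centred on the mode score of non-aggregating sequences.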

| Substance | amyloid nucleation score |
| --- | --- |
| WYGRLGWRLVRPLGRYFTRS | inactive |
| WYRYFGCEDP | inactive |
| WYSTEM | inactive |
| WYTNPRDIRYFLVVYKKQN | inactive |
| WYVFPCRDLVDMCCSGRCAV | inactive |
| YAMYSYFFIVAWFFNRS | 0.252 ± 0.39 |
| YAPSVLSCN | inactive |
| YARVMSVAMSWEDQNSTKKR | 0.467 ± 0.19 |
| YARWDRSKYMTRYCHCCYFL | inactive |
| YARYYGCGIWGWWFSNRSLL | inactive |
| YAYMYNVCYGDCRCANGVWY | 2.71 ± 0.084 |
| YCCDLYLN | inactive |
| YCCNGYPACG | inactive |
| YCKIKLIQGNRFNEYISYCD | 2.56 ± 0.054 |
| YCLTLNHAMIRFGMCCHYMC | inactive |
| YCLVV | inactive |
| YCMWLPFMVNFH | 2.58 ± 0.057 |
| YCQESRSCWAQSYICEGVSL | -0.253 ± 1.1 |
| YCQIK | inactive |
| YCRSSPTLTFCQYSL | inactive |
| YCVFGWIKAWPGGLVVNEFR | inactive |

| Substance | amyloid nucleation score |
| --- | --- |
| YCVLVIFVGFCFMEFENVTQ | inactive |
| YDADRGEWLQLITSPDPFFY | inactive |
| YDCVGDGWRPWLRPEDRSHV | inactive |
| YDGRIGRYSSYIKKCF | inactive |
| YDLCERLR | inactive |
| YDLVIGCVMNVLFVLRCATR | inactive |
| YDPFYGNDQVPIQIVFLCFP | inactive |
| YDRGIVWH | inactive |
| YEAFADRTPLVFAHSWSMLK | inactive |
| YEGRSNSVRSK | inactive |
| YEHRCCHSNIDIFGLQSRNV | inactive |
| YEIHWSRRKGMWFEYYTFHF | inactive |
| YEIYQFSYPRFWKYQCNCSS | inactive |
| YERLLRDKALAPIDPI | inactive |
| YERWKLVHHGKNMYEGVYRL | inactive |
| YEVNGFAQNRA | -0.564 ± 1 |
| YEYYGVKRCIVLG | inactive |
| YFGFYSLWYKYYVTSISRSL | inactive |
| YFGKAMHLLGYSFETGLDWS | inactive |
| YFILLGSAGRCAPMM | 0.71 ± 0.23 |
| YFKVFQVLNLNICYSYRMVN | inactive |

| Substance | amyloid nucleation score |
| --- | --- |
| YFKWVFKSYKPV | 1.35 ± 0.12 |
| YFLDLL | inactive |
| YFLEGNFESRWGECRSARSW | 0.053 ± 0.52 |
| YFLICIQVHKSMRNCPFYVS | inactive |
| YFNLSEYGLCCYRGFRVYKS | 1.23 ± 0.18 |
| YFSACTVKKHTSWCADVT | inactive |
| YFSSSWGMLKCGFAVFDHLT | inactive |
| YFVALVS | inactive |
| YFVIIYWLAPHHSNLLISFP | inactive |
| YFYSSDALPSIS | inactive |
| YGCQSCHGFLCSQFGRPAHS | 0.976 ± 0.21 |
| YGGMVN | inactive |
| YGIVYSCCIVSVIEDFKLLK | 2.57 ± 0.082 |
| YGLIRYPLFIFSALVTT | inactive |
| YGMLFYIYYMPRIFQYAVNL | 1.56 ± 0.065 |
| YGREMRSSMMNGGYLIIMKW | inactive |
| YGSVFSMSMTHA | inactive |
| YGWFVDFGEYVTESNVGLY | inactive |
| YGWVVSSLCYGKFYICIWNL | 0.797 ± 0.22 |
| YGYEHALQFIFYLFNHLSWS | inactive |
| YGYSTSFSG | 0.586 ± 0.28 |

| Substance | amyloid nucleation score |
| --- | --- |
| YGYSVPGKIEFYVGVIGRNP | 1.2 ± 0.085 |
| YHCWSDLDKSLELLSQLMFR | inactive |
| YHDFRMLFLWVVWSIVSIRS | inactive |
| YHDLKNATHVV | inactive |
| YHFLACCKLVGRRWWFGLQR | inactive |
| YHIRR | inactive |
| YHYQDNMS | inactive |
| YIALLLLSRWDQTCKGARTG | 0.622 ± 0.18 |
| YIASLLDYFCMQEDQAYFDY | inactive |
| YICCDIRTRALRIRIRCVLM | -0.411 ± 0.75 |
| YIDTW | inactive |
| YIFFWKRTFLP | inactive |
| YIPGGFRNFGMV | inactive |
| YIPIYRFVMIS | inactive |
| YISIYFSFNRLIVNATSTTK | inactive |
| YITKLTGWTIE | inactive |
| YKCYMFANYGIPVVVLFVVL | inactive |
| YKETDLQIFRAIVVSSSYWD | inactive |
